We go through five sequences from the supplement of paper PMC5998384.

Data set [1] has as its system HeLa Kyoto. In words: solubility in G1/S (NP-40 vs SDS abundance) (log2 ratio); higher = more soluble. The conditions noted are these: cell cycle stage: G1/S.
In data set [2] the test system is HeLa Kyoto. In words: melting temperature (median over replicates), in situ; higher = more thermally stable.
For data set [3], the system named is HeLa Kyoto. In words: solubility change mitosis vs G1/S (difference of NP-40 vs SDS log2 ratios) (log2 ratio difference); higher = more soluble in mitosis.
Data set [4] relates to HeLa Kyoto. In words: thermal stability score vs G1/S (z-score of summed log2 fold changes over temperatures); higher = more thermally stable than in G1/S.
Where [5] appears, read: cell cycle stage: early G1 (4.5 h after nocodazole release).
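For melting temperature (median over replicates), in situ in this document: HeLa Kyoto cells synchronized by double thymidine or nocodazole block, proteins quantified by TMT10plex mass spectrometry, three independent biological replicates.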
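For solubility change mitosis vs G1/S (difference of NP-40 vs SDS log2 ratios) in this document: synchronized HeLa Kyoto cells (double thymidine block for G1/S, nocodazole release for mitosis), protein amounts in NP-40 versus SDS lysates quantified by mass spectrometry, three biological replicates.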
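For solubility in G1/S (NP-40 vs SDS abundance) in this document: HeLa Kyoto cells arrested at G1/S by double thymidine block, proteins quantified by TMT10plex mass spectrometry in mild NP-40 versus SDS extracts, three biological replicates.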
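For thermal stability score vs G1/S (z-score of summed log2 fold changes over temperatures) in this document: synchronized HeLa Kyoto cells, proteins quantified by TMT10plex mass spectrometry, three biological replicates, mitosis taken 0.5 h after nocodazole release, G1/S directly after double thymidine block.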

In the case of “MGHRFLRGLLTLLLPPPPLYTRHRMLGPESVPPPKRSRSKLMAPPRIGTHNGTFHCDEALACALLRLLPEYRDAEIVRTRDPEKLASCDIVVDVGGEYDPRRHRYDHHQRSFTETMSSLSPGKPWQTKLSSAGLIYLHFGHKLLAQLLGTSEEDSMVGTLYDKMYENFVEEVDAVDNGISQWAEGEPRYALTTTLSARVARLNPTWNHPDQDTEAGFKRAMDLVQEEFLQRLDFYQHSWLPARALVEEALAQRFQVDPSGEIVELAKGACPWKEHLYHLESGLSPPVAIFFVIYTDQAGQWRIQCVPKEPHSFQSRLPLPEPWRGLRDEALDQVSGIPGCIFVHASGFIGGHRTREGALSMARATLAQRSYLPQIS [C12ORF10]”, in the data set with HeLa Kyoto [1], the “solubility in G1/S (log2)” value was 0.418. The melting temperature in the data set with HeLa Kyoto [2] (cell cycle stage: G1/S) came to 53.8 °C; in the data set with HeLa Kyoto [2] (cell cycle stage: mitosis), 53.9 °C. Moreover, the “solubility change mitosis (log2)” value with HeLa Kyoto [3] was -0.074. Further, the thermal stability score with HeLa Kyoto [4] (setting [5]) was -0.294; in the data set on HeLa Kyoto [4] (cell cycle stage: mitosis), -1.46.

With “MGILEKISEIEKEIARTQKNKATEYHLGLLKAKLAKYRAQLLEPSKSASSKGEGFDVMKSGDARVALIGFPSVGKSTFLSLMTSTASEAASYEFTTLTCIPGVIEYKGANIQLLDLPGIIEGAAQGKGRGRQVIAVARTADVIIMMLDATKGEVQRSLLEKELESVGIRLNKHKPNIYFKPKKGGGISFNSTVTLTQCSEKLVQLILHEYKIFNAEVLFREDCSPDEFIDVIVGNRVYMPCLYVYNKIDQISMEEVDRLARKPNSVVISCGMKLNLDYLLEMLWEYLALTCIYTKKRGQRPDFTDAIILRKGASVEHVCHRIHRSLASQFKYALVWGTSTKYSPQRVGLTHTMEHEDVIQIVKK [DRG2]”, in the data set on HeLa Kyoto [1], the “solubility in G1/S (log2)” value was determined as 0.0131. The figures for the melting temperature in the data set on HeLa Kyoto [2] (cell cycle stage: G1/S) and in the data set on HeLa Kyoto [2] (cell cycle stage: mitosis) were 51.9 °C and 51.6 °C, respectively. Further, the “solubility change mitosis (log2)” value in the data set with HeLa Kyoto [3] is -0.113. Besides, the thermal stability score is -0.377 in the data set on HeLa Kyoto [4] (setting [5]) and -0.907 in the data set on HeLa Kyoto [4] (cell cycle stage: mitosis).

Turning to “MGILSITDQPPLVQAIFSRDVEEVRSLLSQKENINVLDQERRTPLHAAAYVGDVPILQLLLMSGANVNAKDTLWLTPLHRAAASRNEKVLGLLLAHSADVNARDKLWQTPLHVAAANRATKCAEALAPLLSSLNVADRSGRSALHHAVHSGHLETVNLLLNKGASLNVCDKKERQPLHWAAFLGHLEVLKLLVARGADLGCKDRKGYGLLHTAAASGQIEVVKYLLRMGAEIDEPNAFGNTALHIACYLGQDAVAIELVNAGANVNQPNDKGFTPLHVAAVSTNGALCLELLVNNGADVNYQSKEGKSPLHMAAIHGRFTRSQILIQNGSEIDCADKFGNTPLHVAARYGHELLISTLMTNGADTARRGIHDMFPLHLAVLFGFSDCCRKLLSSGQLYSIVSSLSNEHVLSAGFDINTPDNLGRTCLHAAASGGNVECLNLLLSSGADLRRRDKFGRTPLHYAAANGSYQCAVTLVTAGAGVNEADCKGCSPLHYAAASDTYRRAEPHTPSSHDAEEDEPLKESRRKEAFFCLEFLLDNGADPSLRDRQGYTAVHYAAAYGNRQNLELLLEMSFNCLEDVESTIPVSPLHLAAYNGHCEALKTLAETLVNLDVRDHKGRTALFLATERGSTECVEVLTAHGASALIKERKRKWTPLHAAAASGHTDSLHLLIDSGERADITDVMDAYGQTPLMLAIMNGHVDCVHLLLEKGSTADAADLRGRTALHRGAVTGCEDCLAALLDHDAFVLCRDFKGRTPIHLASACGHTAVLRTLLQAALSTDPLDAGVDYSGYSPMHWASYTGHEDCLELLLEHSPFSYLEGNPFTPLHCAVINNQDSTTEMLLGALGAKIVNSRDAKGRTPLHAAAFADNVSGLRMLLQHQAEVNATDHTGRTALMTAAENGQTAAVEFLLYRGKADLTVLDENKNTALHLACSKGHEKCALMILAETQDLGLINATNSALQMPLHIAARNGLASVVQALLSHGATVLAVDEEGHTPALACAPNKDVADCLALILSTMKPFPPKDAVSPFSFSLLKNCSIAAAKTVGGCGALPHGASCPYSQERPGAIGLDGCYSE [ANKRD52]”, the “solubility in G1/S (log2)” value with HeLa Kyoto [1] is -0.0981. Further, the melting temperature in the data set on HeLa Kyoto [2] (cell cycle stage: G1/S) turned out to be 51.5 °C; in the data set on HeLa Kyoto [2] (cell cycle stage: mitosis), 49.7 °C. Moreover, the “solubility change mitosis (log2)” value in the data set with HeLa Kyoto [3] was -0.171. Also, the thermal stability score in the data set with HeLa Kyoto [4] (setting [5]) was -0.0695; in the data set with HeLa Kyoto [4] (cell cycle stage: mitosis) it was 0.105.

Regarding “MGIQTSPVLLASLGVGLVTLLGLAVGSYLVRRSRRPQVTLLDPNEKYLLRLLDKTTVSHNTKRFRFALPTAHHTLGLPVGKHIYLSTRIDGSLVIRPYTPVTSDEDQGYVDLVIKVYLKGVHPKFPEGGKMSQYLDSLKVGDVVEFRGPSGLLTYTGKGHFNIQPNKKSPPEPRVAKKLGMIAGGTGITPMLQLIRAILKVPEDPTQCFLLFANQTEKDIILREDLEELQARYPNRFKLWFTLDHPPKDWAYSKGFVTADMIREHLPAPGDDVLVLLCGPPPMVQLACHPNLDKLGYSQKMRFTY [CYB5R1]”, the “solubility in G1/S (log2)” value in the data set with HeLa Kyoto [1] stood at 0.339. Also, the melting temperature was 54.1 °C in the data set on HeLa Kyoto [2] (cell cycle stage: G1/S) and 55.3 °C with HeLa Kyoto [2] (cell cycle stage: mitosis). In addition, the “solubility change mitosis (log2)” value in the data set with HeLa Kyoto [3] is -0.041. Moreover, the values for the thermal stability score in the data set with HeLa Kyoto [4] (setting [5]) and with HeLa Kyoto [4] (cell cycle stage: mitosis) were -0.825 and -0.661, respectively.

In the case of “MGKAAAPSRGGGCGGRSRGLSSLFTVVPCLSCHTAAPGMSASTSGSGPEPKPQPQPVPEPERGPLSEQVSEAVSEAVPRSEPVSETTSEPEPGAGQPSELLQGSRPGSESSSGVGAGPFTKAASEPLSRAVGSATFLRPESGSLPALKPLPLLRPGQAKTPLGVPMSGTGTTSSAPLALLPLDSFEGWLLKWTNYLKGYQRRWFVLGNGLLSYYRNQGEMAHTCRGTINLSTAHIDTEDSCGILLTSGARSYHLKASSEVDRQQWITALELAKAKAVRVMNTHSDDSGDDDEATTPADKSELHHTLKNLSLKLDDLSTCNDLIAKHGAALQRSLTELDGLKIPSESGEKLKVVNERATLFRITSNAMINACRDFLELAEIHSRKWQRALQYEQEQRVHLEETIEQLAKQHNSLERAFHSAPGRPANPSKSFIEGSLLTPKGEDSEEDEDTEYFDAMEDSTSFITVITEAKEDSRKAEGSTGTSSVDWSSADNVLDGASLVPKGSSKVKRRVRIPNKPNYSLNLWSIMKNCIGRELSRIPMPVNFNEPLSMLQRLTEDLEYHHLLDKAVHCTSSVEQMCLVAAFSVSSYSTTVHRIAKPFNPMLGETFELDRLDDMGLRSLCEQVSHHPPSAAHYVFSKHGWSLWQEITISSKFRGKYISIMPLGAIHLEFQASGNHYVWRKSTSTVHNIIVGKLWIDQSGDIEIVNHKTNDRCQLKFLPYSYFSKEAARKVTGVVSDSQGKAHYVLSGSWDEQMECSKVMHSSPSSPSSDGKQKTVYQTLSAKLLWKKYPLPENAENMYYFSELALTLNEHEEGVAPTDSRLRPDQRLMEKGRWDEANTEKQRLEEKQRLSRRRRLEACGPGSSCSSEEEKEADAYTPLWFEKRLDPLTGEMACVYKGGYWEAKEKQDWHMCPNIF [OSBP2]”, the “solubility in G1/S (log2)” value with HeLa Kyoto [1] turned out to be 0.0107. Besides, the melting temperature was found to be 50.7 °C in the data set with HeLa Kyoto [2] (cell cycle stage: G1/S) and 51 °C in the data set with HeLa Kyoto [2] (cell cycle stage: mitosis). In addition, the “solubility change mitosis (log2)” value in the data set with HeLa Kyoto [3] was -0.137. Besides, the thermal stability score in the data set with HeLa Kyoto [4] (setting [5]) is -0.699; in the data set on HeLa Kyoto [4] (cell cycle stage: mitosis), -0.707.
